Tests used:
Assay in all cases: EC50 of free RNA motif oligo competing protein binding to immobilised probe
RPS20 = RPS20 (UniProt P60866)
Procedure, shortened: (§1)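 HEK293-FT lysate (2.5 mg protein/well) was pre-incubated 1 h at 4°C with free RNA oligos (0 nM to 30 μM), then 30 min at 4°C with the same 5′-amino-C6 oligos coupled to NHS-Sepharose beads. Bound proteins were quantified by label-free LC-MS/MS in three biological replicates and two independent experiments, and normalised to the water control. EC50 came from a four-parameter log-logistic fit; Kd is EC50 times a protein-dependent depletion factor.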

LSM4 = molecular target: T1, LSM4 (UniProt Q9Y4Z0)
T1 sequence: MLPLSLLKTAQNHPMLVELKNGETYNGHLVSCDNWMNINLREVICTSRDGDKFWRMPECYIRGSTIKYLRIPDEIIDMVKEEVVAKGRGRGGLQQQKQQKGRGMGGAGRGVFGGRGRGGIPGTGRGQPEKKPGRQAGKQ
Procedure, shortened: as §1

LSM1 = molecular target: T2, LSM1 (UniProt O15116)
T2 sequence: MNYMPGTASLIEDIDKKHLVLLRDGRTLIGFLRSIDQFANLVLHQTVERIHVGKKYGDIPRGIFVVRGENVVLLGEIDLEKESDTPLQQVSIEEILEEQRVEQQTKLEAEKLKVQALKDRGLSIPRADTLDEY
Procedure, shortened: as §1

ELAVL2 = ELAVL2 (UniProt Q12926)
Procedure, shortened: as §1

TFIP11 = molecular target: T3, TFIP11 (UniProt Q9UBB9)
T3 sequence: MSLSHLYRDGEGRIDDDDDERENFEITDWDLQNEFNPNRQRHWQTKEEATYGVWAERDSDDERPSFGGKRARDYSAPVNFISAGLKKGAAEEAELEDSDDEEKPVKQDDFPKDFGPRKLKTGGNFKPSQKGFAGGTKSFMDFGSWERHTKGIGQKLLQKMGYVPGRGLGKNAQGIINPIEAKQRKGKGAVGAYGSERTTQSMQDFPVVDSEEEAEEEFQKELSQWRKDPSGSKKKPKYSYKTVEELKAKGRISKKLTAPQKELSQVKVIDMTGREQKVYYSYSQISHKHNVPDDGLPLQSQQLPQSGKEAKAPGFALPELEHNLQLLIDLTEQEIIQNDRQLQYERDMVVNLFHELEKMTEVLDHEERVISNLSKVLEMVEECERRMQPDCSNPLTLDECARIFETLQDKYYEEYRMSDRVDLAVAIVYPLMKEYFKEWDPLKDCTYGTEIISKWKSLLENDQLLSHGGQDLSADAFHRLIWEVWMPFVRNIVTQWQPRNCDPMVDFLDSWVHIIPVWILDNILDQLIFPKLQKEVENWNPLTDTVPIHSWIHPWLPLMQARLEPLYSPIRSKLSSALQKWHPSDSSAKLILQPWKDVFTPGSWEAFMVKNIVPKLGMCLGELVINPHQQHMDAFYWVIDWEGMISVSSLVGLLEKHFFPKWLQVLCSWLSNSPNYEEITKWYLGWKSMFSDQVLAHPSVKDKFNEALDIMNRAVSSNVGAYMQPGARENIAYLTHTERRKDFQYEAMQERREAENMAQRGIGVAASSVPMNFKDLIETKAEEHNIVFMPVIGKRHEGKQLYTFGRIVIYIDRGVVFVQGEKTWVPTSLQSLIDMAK
Procedure, shortened: as §1

PATL1 = molecular target: T4, PATL1 (UniProt Q86TB9)
T4 sequence: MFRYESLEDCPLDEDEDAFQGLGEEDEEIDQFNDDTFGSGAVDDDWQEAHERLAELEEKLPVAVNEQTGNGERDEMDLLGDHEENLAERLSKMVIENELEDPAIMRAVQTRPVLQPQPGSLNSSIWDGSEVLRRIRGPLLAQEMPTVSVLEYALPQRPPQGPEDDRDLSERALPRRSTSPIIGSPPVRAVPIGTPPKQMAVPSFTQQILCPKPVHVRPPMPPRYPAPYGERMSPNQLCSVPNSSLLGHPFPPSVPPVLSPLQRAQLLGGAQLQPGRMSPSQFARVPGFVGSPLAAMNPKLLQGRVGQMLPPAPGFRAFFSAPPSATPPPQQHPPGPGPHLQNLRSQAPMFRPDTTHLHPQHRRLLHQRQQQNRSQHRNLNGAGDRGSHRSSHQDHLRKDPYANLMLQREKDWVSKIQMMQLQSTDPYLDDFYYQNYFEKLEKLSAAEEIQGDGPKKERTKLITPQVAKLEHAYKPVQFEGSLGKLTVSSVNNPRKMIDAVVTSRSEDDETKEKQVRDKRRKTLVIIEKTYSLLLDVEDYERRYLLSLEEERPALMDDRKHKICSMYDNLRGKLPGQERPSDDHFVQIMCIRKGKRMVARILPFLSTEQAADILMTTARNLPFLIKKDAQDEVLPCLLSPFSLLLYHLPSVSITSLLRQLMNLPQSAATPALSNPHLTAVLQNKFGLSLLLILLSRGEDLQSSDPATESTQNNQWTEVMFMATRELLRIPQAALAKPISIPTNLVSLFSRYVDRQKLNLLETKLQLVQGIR
Procedure, shortened: as §1

LSM6 = molecular target: T5, LSM6 (UniProt P62312)
T5 sequence: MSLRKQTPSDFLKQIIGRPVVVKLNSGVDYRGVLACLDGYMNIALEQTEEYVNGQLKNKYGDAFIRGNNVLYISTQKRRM
Procedure, shortened: as §1

MSI1 = MSI1 (UniProt O43347)
Procedure, shortened: as §1

MSI1, sequence (O43347 whole entry): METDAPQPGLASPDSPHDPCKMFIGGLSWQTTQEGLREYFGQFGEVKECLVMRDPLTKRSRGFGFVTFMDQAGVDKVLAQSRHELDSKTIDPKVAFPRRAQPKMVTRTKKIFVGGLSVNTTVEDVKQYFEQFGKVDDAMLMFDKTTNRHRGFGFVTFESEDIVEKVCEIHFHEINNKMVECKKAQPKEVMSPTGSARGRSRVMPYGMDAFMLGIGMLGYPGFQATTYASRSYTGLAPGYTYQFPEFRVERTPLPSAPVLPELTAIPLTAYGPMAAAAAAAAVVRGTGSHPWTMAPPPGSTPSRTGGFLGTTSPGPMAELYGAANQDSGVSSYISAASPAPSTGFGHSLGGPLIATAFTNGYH
ELAVL2, sequence (Q12926 whole entry): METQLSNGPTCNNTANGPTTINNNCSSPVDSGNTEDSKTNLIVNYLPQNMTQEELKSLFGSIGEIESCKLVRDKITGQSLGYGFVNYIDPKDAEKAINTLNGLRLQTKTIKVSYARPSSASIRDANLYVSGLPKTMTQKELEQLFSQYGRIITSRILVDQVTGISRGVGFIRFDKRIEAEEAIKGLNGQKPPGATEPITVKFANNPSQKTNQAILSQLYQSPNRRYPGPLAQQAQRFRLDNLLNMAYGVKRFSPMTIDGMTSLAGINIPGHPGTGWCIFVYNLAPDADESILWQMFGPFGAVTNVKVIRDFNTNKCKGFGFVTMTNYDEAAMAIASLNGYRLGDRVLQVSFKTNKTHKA

Sequence	EC50 (RPS20)	EC50 (LSM4)	EC50 (LSM1)	EC50 (ELAVL2)	EC50 (TFIP11)	EC50 (PATL1)	EC50 (LSM6)	EC50 (MSI1)
CUGUCCU	171 nM	–	–	–	–	–	–	–
AAUAAA	3800 nM	465 nM	188 nM	9740 nM	2350 nM	468 nM	797 nM	3500 nM
UAUUUAU	–	599 nM	395 nM	3840 nM	2390 nM	407 nM	447 nM	487 nM
